The text below walks through data of PMC3072279 (Biochemistry, 2011).

The series concerns the molecule itself. Kind of series: SEC-MALS. On the technique in general: SEC sorts molecules by how far they enter the pores of the column.

B1: DCAF1 817–1507, C-terminally His6-tagged (domain or fragment)
chain: not shown
The term stoichiometry N denotes a count of units in the complex or per binding partner. Turning to B1, the “stoichiometry N” value was determined as 2.
